Test results reported in patent US20020132977A1 (Harvard, published 2002).

Biological target: T1, GFP-tagged p73 (human, UniProt O15350 1-636)
T1 construct: also called GFP-p73; not shown: GFP (pEGFP vector)
T1 sequence: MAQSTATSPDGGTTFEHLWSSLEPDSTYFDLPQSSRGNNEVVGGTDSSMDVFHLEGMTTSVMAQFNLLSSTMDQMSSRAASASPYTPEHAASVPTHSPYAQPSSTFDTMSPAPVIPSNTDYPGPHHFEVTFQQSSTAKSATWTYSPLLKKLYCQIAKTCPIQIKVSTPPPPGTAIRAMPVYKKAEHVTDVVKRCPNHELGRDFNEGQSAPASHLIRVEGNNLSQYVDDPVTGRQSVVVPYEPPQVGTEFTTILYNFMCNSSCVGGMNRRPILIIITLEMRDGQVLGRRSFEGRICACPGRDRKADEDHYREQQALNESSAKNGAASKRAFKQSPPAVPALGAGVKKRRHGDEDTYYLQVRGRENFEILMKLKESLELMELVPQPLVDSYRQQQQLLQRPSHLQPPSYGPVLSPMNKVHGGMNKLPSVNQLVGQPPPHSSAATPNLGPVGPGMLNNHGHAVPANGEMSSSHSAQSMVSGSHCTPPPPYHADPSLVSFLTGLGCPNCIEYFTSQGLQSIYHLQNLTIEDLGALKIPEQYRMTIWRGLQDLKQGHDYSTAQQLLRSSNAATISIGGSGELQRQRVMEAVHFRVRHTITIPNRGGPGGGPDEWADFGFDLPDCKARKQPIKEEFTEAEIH
Assay: anti-Flag IP, anti-GFP Western

binding result: no binding
B1: p73β (p53aa319-364) (other)
chain: MAQSTATSPDGGTTFEHLWSSLEPDSTYFDLPQSSRGNNEVVGGTDSSMDVFHLEGMTTSVMAQFNLLSSTMDQMSSRAASASPYTPEHAASVPTHSPYAQPSSTFDTMSPAPVIPSNTDYPGPHHFEVTFQQSSTAKSATWTYSPLLKKLYCQIAKTCPIQIKVSTPPPPGTAIRAMPVYKKAEHVTDVVKRCPNHELGRDFNEGQSAPASHLIRVEGNNLSQYVDDPVTGRQSVVVPYEPPQVGTEFTTILYNFMCNSSCVGGMNRRPILIIITLEMRDGQVLGRRSFEGRICACPGRDRKADEDHYREQQALNESSAKNGAASKRAFKQSPPAVPALGAGVKKKPLDGEYFTLQIRGRERFEMFRELNEALELKDAQAGKEPGGSRAQQQQLLQRPSHLQPPSYGPVLSPMNKVHGGMNKLPSVNQLVGQPPPHSSAATPNLGPVGPGMLNNHGHAVPANGEMSSSHSAQSMVSGSHCTPPPPYHADPSLVRTWGP
notes: range 1-344;range 391-C-terminus; also called p73 chimera with OD of p53; Flag-tagged p53-p73 chimera with switched OD; not shown: Flag tag
